Measurements taken from patent publication US8530235B2, “Medium that supports culture of an oocyte and modulation of granulosa cell apoptosis” (Adelaide Research & Innovation Pty Ltd., priority 2005, dated 2013).

Test system: cumulus-oocyte complexes
Assay: Study II: oocyte developmental competence after IVM, IVF and embryo culture (cleavage, blastocyst)
Type: cell-based, Bovine
Experimental: Bovine ovaries were collected from local abattoirs and transported to the laboratory in warm saline (30-35° C.). Cumulus-oocyte complexes (COC) were aspirated from antral follicles (2 to 8 mm diameter) using an 18-gauge needle and a 10-ml syringe containing ˜2 ml aspiration media (Hepes-buffered Tissue Cultured Medium-199; TCM-199, ICN Biochemicals, Irvine, Calif., USA) supplemented with 50 μg/ml kanamycin, 0.5 mM sodium pyruvate, 50 μg/ml heparin and 4 mg/ml fatty acid-free bovine serum albumin (FAF-BSA; ICPbio Ltd, Aukland, NZ). Intact COC with compact cumulus vestments greater than five cell layers and evenly pigmented cytoplasm were selected under a dissecting microscope and washed twice in Hepes-buffered TCM-199 and once in Hepes-TCM199 supplemented with 10% fetal calf serum (FCS) (Invitrogen, Carlsbad, Calif.). Base media for oocyte maturation was Bovine VitroMat (Cook Australia, Eight Mile Plain, Qld, Australia), and is a medium based on the ionic composition of bovine follicular fluid and also containing 100 μm glycylglutamine (Glutamax; Gibco Invitrogen, Carlsbad, Calif., USA), 100 μm N-acetyl-1-cysteine, 100 μm 2-mercaptoethylamine, 1% v/v non-essential amino acids (100×; Gibco Invitrogen), 2% v/v essential amino acids (50×; Gibco Invitrogen), 4 mg mL-1 fatty acid-free BSA and 5.6 mm glucose. […] (Puregon, Organon, Oss, Netherlands). Complexes were cultured pre-equilibrated […] drops overlaid with mineral oil and incubated at 39° C. with 5% CO2 in humidified air for 24 hour. […]
Recombinant mouse GDF-9 and recombinant ovine BMP-15 were produced in-house as previously described (Kaivo-Oja et al. (2003) J. Clin. Endocrinol Metab 88:755-762; McNatty et al. (2005) Reproduction 129:473-480) using transfected 293 human embryonic kidney cell lines (293H). Recombinant proteins were partially purified using hydrophobic interaction chromatography (HIC), as recently described (Hickey et al., (2005) Biol Reprod on line), and their concentrations were then estimated by Western blot (Kaivo-Oja et al., 2003 3) J. Clin. Endocrinol Metab 88:755-762). Control conditioned medium (293H) was also produced from untransfected 293H cells and purified by HIC.
All experiments were carried out using frozen semen from the same bull of proven fertility. Briefly, one straw of semen stored in liquid nitrogen was rapidly thawed in a water bath for one minute. The semen sample was layered on top of a discontinuous (45%:90%) Percoll gradient (Amersham Bioscience) and centrifuged at room temperature for 20-25 mins at 700 g. The supernatant was removed and the sperm pellet was washed with […] Bovine Vitro Wash (Cook Australia, Eight Mile Plains, Qld, Australia) and centrifuged for a further 5 minutes at 200 g. spermatozoa were resuspended with TVF medium (Bovine Vitro Fert, Cook Australia), then added to the fertilization media drops (Bovine Vitro Fert, Cook Australia, supplemented with 0.01 mM heparin, 0.2 mM penicillamine and […] hypotaurine) at a final concentration of 1×10^6 spermatozoa/ml. COCs were inseminated at a media density of […] of IVF medium per COCs for 24 h, at 39° C. in 6% CO2 in humidified air.
Cumulus cells were removed by gentle pipetting 23-24 h post insemination and five presumptive zygotes were transferred into 20 μl drops of pre-equilibrated Cook Bovine Cleave medium (modified SOFaa, Cook Australia) and cultured under mineral oil at 38.5° C. in 7% O2, 6% CO2, balance N2, for five days (day 1 to day 5).
On Day 5, embryos were transferred in groups of […] drops of pre-equilibrated Bovine Vitro Blast (Cook Bovine Blast medium; Cook Australia) at 38.5° C. overlaid with mineral oil and cultured to Day 8. Embryos were assessed for quality at Day 8 according to the definitions presented in the Manual of the International Embryo Transfer Society and were performed independently and blinded by an experienced bovine embryologist. […]

[1] = 1st REP, COC IVM 24 h, 175 ng/ml GDF-9, 10% BMP-15, 10% 293H

B1: BMP-15: Recombinant ovine BMP-15 produced in-house in transfected 293H cells, partially purified by hydrophobic interaction chromatography; dosed as % v/v (protein, UniProt Q9MZE2 269-393, looked up)
Bone morphogenetic protein 15: QAGSIASEVPGPSREHDGPESNQCSLHPFQVSFQQLGWDHWIIAPHLYTPNYCKGVCPRVLHYGLNSPNHAIIQNLVSELVDQNVPQPSCVPYKYVPISILLIEANGSILYKEYEGMIAQSCTCR
With B1 the “BLACTOCYST RATE” value [1] was 58%, the “CLEAVAGE RATE” value [1] was 76% and the “BLACTOCYST RATE” value (2nd REP) was 63%. The “CLEAVAGE RATE” value (2nd REP) was 90%, the “BLACTOCYST RATE” value (3rd REP) was 50% and the “CLEAVAGE RATE” value (3rd REP) was 80%. For the same molecule, the “BLACTOCYST RATE” value (4th REP) was 50%, the “CLEAVAGE RATE” value (4th REP) was 85% and the “BLACTOCYST RATE” value (AVERAGE, control COC 41.5%) was 55%. For the same molecule, the “CLEAVAGE RATE” value (AVERAGE, control COC 84%) was 83% and the “number of oocytes that reached the blastocyst stage post insemination” value (alone or in combination with GDF9, compared with GDF-9 alone or no supplement) was “more effective”.

B2: GDF-9: Recombinant mouse GDF-9 produced in-house in transfected 293H cells, partially purified by HIC (protein, UniProt Q07105 307-441, looked up)
Growth/differentiation factor …: GQKAIRSEAKGPLLTASFNLSEYFKQFLFPQNECELHDFRLSFSQLKWDNWIVAPHRYNPRYCKGDCPRAVRHRYGSPVHTMVQNIIYEKLDPSVPRPSCVPGKYSPLSVLTIEPDGSIAYKEYEDMIATRCTCR
For B2, the “BLACTOCYST RATE” value [1] was 50%, the “CLEAVAGE RATE” value [1] was 88% and the “BLACTOCYST RATE” value (2nd REP) was 58%. The “CLEAVAGE RATE” value (2nd REP) was 92%, the “BLACTOCYST RATE” value (3rd REP) was 35% and the “CLEAVAGE RATE” value (3rd REP) was 84%. The “BLACTOCYST RATE” value (4th REP) was 36%, the “CLEAVAGE RATE” value (4th REP) was 83% and the “BLACTOCYST RATE” value (AVERAGE, control COC 41.5%) was 45%. The “CLEAVAGE RATE” value (AVERAGE, control COC 84%) was 87%.
